# Measurements: patent CN114316057A (SHENZHEN PEOPLE HOSPITAL, dated 2022)
# T1: TOM20-Human 胞质结构域蛋白(25-145) (human, UniProt Q15388 25-145)
# T1 construct: range 25-145; A purification tag (Ni column) is implied but not described; also called TOM20胞质结构域
# T1 sequence (looked up): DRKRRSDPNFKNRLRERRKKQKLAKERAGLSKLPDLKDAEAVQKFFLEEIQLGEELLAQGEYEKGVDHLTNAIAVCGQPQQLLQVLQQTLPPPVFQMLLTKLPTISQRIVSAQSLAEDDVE
# T2: TOM20-Mouse 胞质结构域 (mouse, UniProt Q9DCC8 25-145)
# T2 construct: domain: 胞质结构域; also called TOM20(鼠)胞质结构域
# T2 sequence (looked up): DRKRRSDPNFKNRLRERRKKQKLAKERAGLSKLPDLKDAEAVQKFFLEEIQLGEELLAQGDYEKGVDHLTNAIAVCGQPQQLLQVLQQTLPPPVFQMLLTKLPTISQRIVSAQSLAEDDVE
# How the values were obtained:
# [1] = biological target: T1, TOM20-Human 胞质结构域蛋白(25-145); experiment: SPR (Biacore), antigen immobilised on chip, nanobody as analyte
# TOM20-Mouse 胞质结构域 = biological target: T2, TOM20-Mouse 胞质结构域; experiment: as above
# [2] = biological target: T1, TOM20-Human 胞质结构域蛋白(25-145); experiment: phage clone ELISA, crude phage nanobody extract on coated TOM20 against BSA control
binder,measurement,setting,value
"P2B7号纳米抗体 (VHH, Alpaca naive-library nanobody expressed in E. coli with an HA tag for detection and purified on Ni resin; also called P2B7纳米抗体; TOM20纳米抗体; not shown: fused HA tag and vector-derived His tag (PET-14B or PET28a-sumo)) VHH: AVQLVESGGGLVQAGGSLRLSCVASGSTFSNFVMGWYRQAPGKQRVLVATISSGGSTNYADSVKGRFTISRDNTKNTVYLQMNSLKPEDTSVYYCNARRGSVIVPTLAYDYWGQGTQVTVSS",Kd,[1],44.8 nM
same,Kd,TOM20-Mouse 胞质结构域,413 nM
same,TOM20/BSA ratio,[2],~3 fold
